Tested on: IA-stimulated PBMCs
Test: Counts of significant modulations over all treatments of IA-stimulated PBMCs (LPS or PHA)
Assay type: cell-based, human
Method: The bioactivity of our plantakines IL-37b and IL-38 was assessed by monitoring the secretion of 11 cytokines, generally regarded as inflammatory markers, from PBMCs stimulated with an IA. Freshly isolated human PBMCs were subjected to various treatments-combinations of the IAs with the plantakines at different concentrations. Two different model IAs were used, either the bacterial lipopolysaccharides (LPS) or a lectin from Phaseolus vulgaris (phytohaemagglutinin, PHA); each of the IAs was applied onto cells separately, each IA was applied at two concentrations: LPS at 150 and 300 μg/mL; PHA at 5 and 10 μg/mL. Each IA at each concentration was applied in combination with one of the two plantakines, each of them at three different concentrations: 1, 10 and 100 ng/ml of the monomeric forms present in the purified extracts. Also included were treatments comprised of either IA at their lower concentrations, in combination with both plantakines at 10 ng/ml concentration in order to assess possible synergistic effects. Cells with only IAs applied represented the reference (positive controls for each concentration), cells without any treatment represented the basal level (negative control). The levels of eleven different pro-inflammatory cytokines secreted into the medium from the PBMCs-GM-SCF, IFNγ. TNFα, IL-1α, IL-1β, IL-6, IL-8, IL-22, IL12, IL-17 and IL-10 were compared between the treatments and the controls. We applied Generalized Estimating Equation (GEE) model for the statistical data analysis. This statistical approach allows for nested observations and was used to test the effects of the plantakines IL-37b and IL-38 and their dosage in the context of IA-stimulated PBMCs inflammatory responses. […]
Non-linear logarithm transformation was performed to address non-normality of distribution of Luminex-derived numeric data. […] Separate analyses were conducted for each of the 11 monitored cytokines and each inflammatory agent/concentration combination. […]

[1] = separate applications, either IA, all concentrations

B1: plant-produced recombinant human IL-38, mature form C2-W152 with C-terminal 7xHIS tag (ligand)
chain: CSLPMARYYIIKYADQKALYTRDGQLLVGDPVADNCCAEKICILPNRGLARTKVPIFLGIQGGSRCLACVETEEGPSLQLEDVNIEELYKGGEEATRFTFFQSSSGSAFRLEAAAWPGWFLCGPAEPQQPVQLTKESEPSARTKFYFEQSWHHHHHHH
notes: range 2-152; also called rhIL-38; plantakine IL-38
attenuated rather than increased secretion of inflammatory cytokines, frequency ratio (all significant treatments): 1.7 times
number of treatments in which secretion of inflammatory cytokines was increased [1]: 22 treatments
number of treatments in which secretion of inflammatory cytokines was suppressed [1]: 30 treatments

— patent US20250101446A1, “METHOD FOR GENETIC TRANSFORMATION OF PLANT ORGANELLE GENOME AND USES THEREOF” (Solar Grants Biotechnology Inc., priority 2022, published 2025)
